The source of these data is the MegaScale stability set (Tsuboyama et al. 2023).

The labels stand for the following.
B1: EEHEE_rd4_0003 (parent)
chain: KKVTINGVEIKFNNPEEAVKFALELAKRLNLRIEFHGDQIKIE

The variants in the series derive from B1. Description: folding stability dG (cDNA display proteolysis); higher = more stable. The conditions noted are these: PBS, room temperature.
On to KTVTINGVEIKFNNPEEAVKFALELAKRLNLRIEFHGDQIKIE, for which the “folding stability dG” value was found to be 3.4 kcal/mol.

Take KKVTINGVEIKFNNPEEAVKFALLLAKRLNLRIEFHGDQIKIE: the “folding stability dG” value is 2.66 kcal/mol. In the case of KKVTINGVEIKFNNPEEAVKFALCLAKRLNLRIEFHGDQIKIE, the “folding stability dG” value worked out at 4.19 kcal/mol. Take KKVTINGVEIKFNNPEEAVKFALWLAKRLNLRIEFHGDQIKIE: the “folding stability dG” value stood at 3.15 kcal/mol. Then KKVTINGVEIKFNNPEEAVKFALFLAKRLNLRIEFHGDQIKIE, with 2.58 kcal/mol. With KKVTINGVEIKFNNPEEAVKFALELAKRLNLRIEFHGPQIKIE the figure was 2.1 kcal/mol. Then KKVTINGVEIKFNNPEEAVKFALELAKRLNLRIEFHGFQIKIE, with 2.7 kcal/mol; and KKVTINGVEIKFNNPEEAVKFALELAPRLNLRIEFHGDQIKIE, with 1.37 kcal/mol. In the case of KKVTINGVEIKFNNPEEAVKFALELAERLNLRIEFHGDQIKIE, the “folding stability dG” value was found to be 2.38 kcal/mol.

KKVTINGVEIKFNNPEEAVKFALELAKRLNLRIEFHGDQIKIT: the “folding stability dG” value was determined as 3.27 kcal/mol. As to KKVTINGVEIKFNNPEEAVKFALELAKRLNLRIEFHGDQIKIP, the “folding stability dG” value is 1.83 kcal/mol. With KKVTINGVEIKFNNPEEAVKFALELAKRLNLRIEFHGDQIKIV the figure was 3.28 kcal/mol; with KKVTINGVEIKFNNPEEAVKFALELAKRLNLRIEFHGDVIKIE, 3.18 kcal/mol; with KKVTINGVEIKFNNPEEAVKFALELAKRLNLRIEFHGDGIKIE, 2.52 kcal/mol. In the case of KKVTINGVEIKFNNPEEAVKFALELAKRLNLRIEFHGDNIKIE, the “folding stability dG” value was 2.82 kcal/mol. Then KKVTINGVEIKFNNPEEAVKFALELAKRLNLRIEFHGDMIKIE, with 2.88 kcal/mol; and KKVTINGVEIKFNNPEEAPKFALELAKRLNLRIEFHGDQIKIE, with 1.04 kcal/mol; and KKVTINGVEIKFNNPEEAHKFALELAKRLNLRIEFHGDQIKIE, with 2.21 kcal/mol.

With KKVTINGVEIKFNNPEEAMKFALELAKRLNLRIEFHGDQIKIE, the “folding stability dG” value is 2.94 kcal/mol.

Take KKVTINGVEIKFNNPEEAQKFALELAKRLNLRIEFHGDQIKIE: the “folding stability dG” value is 2.06 kcal/mol. Then IKVTINGVEIKFNNPEEAVKFALELAKRLNLRIEFHGDQIKIE, with 3.3 kcal/mol; and KKVTINGVEIKFNNPEEAVKFALELAKRLNFRIEFHGDQIKIE, with 2.25 kcal/mol; and KKVTINGVEIKFNNPEEAVKFALELAKRLNVRIEFHGDQIKIE, with 2.56 kcal/mol. With KKVTINGVEIKFNNPEEAVKFALELAKRLNDRIEFHGDQIKIE the figure was 0.559 kcal/mol.

With KKVTINGVEIKFNNPEEAVKFALELAKRLNERIEFHGDQIKIE, the “folding stability dG” value came to 0.917 kcal/mol. Then KKVTINGVEIKFNNPEEAVKFALELAKRLNQRIEFHGDQIKIE, with 1.13 kcal/mol. Turning to KKVTINGVEIKFNNPEEAVKFAMELAKRLNLRIEFHGDQIKIE, the “folding stability dG” value worked out at 2.52 kcal/mol.

For the variant KKVTINGVEIKFNNPEEAVKFADELAKRLNLRIEFHGDQIKIE, the “folding stability dG” value is 1.47 kcal/mol.

For KKVTINGVEIKFSNPEEAVKFALELAKRLNLRIEFHGDQIKIE, the “folding stability dG” value was 2.69 kcal/mol. Then KKVTINGVEIKFKNPEEAVKFALELAKRLNLRIEFHGDQIKIE, with 2.8 kcal/mol; and KKVTINGVEIKFPNPEEAVKFALELAKRLNLRIEFHGDQIKIE, with 2.53 kcal/mol. With KKVTINGVEIKFGNPEEAVKFALELAKRLNLRIEFHGDQIKIE the figure was 2.44 kcal/mol. For KKVTINGVEIKFNNPEEAVKFALELAKRLNLRIEFFGDQIKIE, the “folding stability dG” value is 2.78 kcal/mol.

On to KKVTINGVEIKFNNPEEAVKFALELAKRLNLRIEFIGDQIKIE, for which the “folding stability dG” value was found to be 2.93 kcal/mol. With KKVTINGVEIKFNNPVEAVKFALELAKRLNLRIEFHGDQIKIE the figure was 2.53 kcal/mol; with KKVTINGVENKFNNPEEAVKFALELAKRLNLRIEFHGDQIKIE, 1.5 kcal/mol. With KKVTINGVEHKFNNPEEAVKFALELAKRLNLRIEFHGDQIKIE the figure was 2.49 kcal/mol; with KKVTINGVEIKFNNPEEAVKFALEFAKRLNLRIEFHGDQIKIE, 2.44 kcal/mol. For KKVTINGVEIKFNNPEEAVKFALEMAKRLNLRIEFHGDQIKIE, the “folding stability dG” value turned out to be 2.46 kcal/mol. On to KKVTINGVEIKFNNPEEAVKFALEDAKRLNLRIEFHGDQIKIE, for which the “folding stability dG” value came out at 0.443 kcal/mol.

Turning to KKWTINGVEIKFNNPEEAVKFALELAKRLNLRIEFHGDQIKIE, the “folding stability dG” value turned out to be 2.29 kcal/mol.

Consider KKTTINGVEIKFNNPEEAVKFALELAKRLNLRIEFHGDQIKIE, for which the “folding stability dG” value is 1.76 kcal/mol.

Consider KKATINGVEIKFNNPEEAVKFALELAKRLNLRIEFHGDQIKIE, for which the “folding stability dG” value turned out to be 1.67 kcal/mol. With KKLTINGVEIKFNNPEEAVKFALELAKRLNLRIEFHGDQIKIE the figure was 2.39 kcal/mol.

As to KKVTINGVEIKFNNPEEAVKFALELAKRLNLYIEFHGDQIKIE, the “folding stability dG” value was determined as 2.15 kcal/mol. In the case of KKVTINGVEIKFNNPEEAVKFALELAKRLNLGIEFHGDQIKIE, the “folding stability dG” value came out at 1.6 kcal/mol.

Regarding KKVTINGVEIKFNNPEEAVKFALELAKRLNLCIEFHGDQIKIE, the “folding stability dG” value is 2.81 kcal/mol. Take KKVTINGVEIKFNNPEEAVKFALELAKRLNLRIEFHGDQIYIE: the “folding stability dG” value amounted to 2.94 kcal/mol.

As for KKVTINGVEIKFNNPEEAVKFALELAKRLNLRIEFHGDQIGIE, the “folding stability dG” value worked out at 1.73 kcal/mol.

For KKVTINGVEIKFNNPEEAVKFALELAKRLNLRIEFHGDQIHIE, the “folding stability dG” value was determined as 2.49 kcal/mol. With KKVTINFVEIKFNNPEEAVKFALELAKRLNLRIEFHGDQIKIE, the “folding stability dG” value was 2.37 kcal/mol.

Take KKVTINKVEIKFNNPEEAVKFALELAKRLNLRIEFHGDQIKIE: the “folding stability dG” value turned out to be 2.09 kcal/mol. Take KKVTINGVEIKFNNPEEAVKFALELAKRLNLRVEFHGDQIKIE: the “folding stability dG” value came to 2.67 kcal/mol. Then KKVTINGVEIKFNNPEEAVKFALELAKRLNLRYEFHGDQIKIE, with 1.74 kcal/mol; and KKVTINGVEIKFNNPESAVKFALELAKRLNLRIEFHGDQIKIE, with 2.39 kcal/mol.

As to KKVTINGVEIKFNNPEEAVVFALELAKRLNLRIEFHGDQIKIE, the “folding stability dG” value was 2.2 kcal/mol.

As to KKVTINGVEIKFNNPEEAVNFALELAKRLNLRIEFHGDQIKIE, the “folding stability dG” value turned out to be 2.13 kcal/mol.

Regarding KKVTINGVEIKFNNPEEAVLFALELAKRLNLRIEFHGDQIKIE, the “folding stability dG” value is 2.49 kcal/mol.

For KKVWINGVEIKFNNPEEAVKFALELAKRLNLRIEFHGDQIKIE, the “folding stability dG” value amounted to 3.01 kcal/mol.
